B1: bnKCP1 (B. napus KID-containing protein 1), full-length, in vitro translated (other)
chain: MAGGGPTFSIELSAYGSDLPTDKASGDIPNEEGSGLSRVGSGIWSGRTVDYSSESSSSIGTPGDSEEEDEESEEDNDEEELGLASLRSLEDSLPSKGLSSHYKGKSKSFGNLGEIGSVKEVPKQENPLNKKRRLQIYNKLARKSFYSWQNPKSMPLLPVHEDNDDEEGDDGDLSDEERGGDVLARRPSFKNRALKSMSCFALSDLQEEEEEEEDE
modifications: labeled with [^35S]methionine
notes: Produced by TNT-Quick coupled in vitro transcription/translation from pET-28b (HindIII/XhoI); also called wild type bnKCP1; pET-28b bnKCP1
B2: ΔbnKCP1^1-160 (residues 1-160), in vitro translated (other)
chain: MAGGGPTFSIELSAYGSDLPTDKASGDIPNEEGSGLSRVGSGIWSGRTVDYSSESSSSIGTPGDSEEEDEESEEDNDEEELGLASLRSLEDSLPSKGLSSHYKGKSKSFGNLGEIGSVKEVPKQENPLNKKRRLQIYNKLARKSFYSWQNPKSMPLLPVH
modifications: labeled with [^35S]methionine
notes: C-terminal truncation lacking the KID domain, translated in vitro from pET-28b; Vector-encoded residues are not described
B3: ΔbnKCP1^1-80 (residues 1-80), in vitro translated (other)
chain: MAGGGPTFSIELSAYGSDLPTDKASGDIPNEEGSGLSRVGSGIWSGRTVDYSSESSSSIGTPGDSEEEDEESEEDNDEEE
modifications: labeled with [^35S]methionine
notes: as for B2
B4: BnSCL1 (Brassica napus SCARECROW-like protein 1), full-length, in vitro translated (other, not shown: small tags and cut ends)
chain: MDEHAMRSMDWDSIMKELEVDDDSAPYQLQPSSFNLPVFPDIDSSDVYPGPNQITGYGFNSLDSVDNGGFDYIEDLIRVVDCIESDELHLAHVVLSQLNQRLQTSAGRPLQRAAFYFKEALGSLLTGTNRNQLFSWSDIVQKIRAIKEFSGISPIPLFSHFTANQAILDSLSSQSSSPFVHVVDFEIGFGGQYASLMREIAEKSANGGFLRVTAVVAEDCAVETRLVKENLTQFAAEMKIRFQIEFVLMKTFEILSFKAIRFVDGERTVVLISPAIFRRVIGIAEFVNNLGRVSPNVVVFVDSEGCTETAGSGSFRREFVSAFEFYTMVLESLDAAAPPGDLVKKIVETFLLRPKISAAVETAANRRSAGQMTWREMLCAAGMRPVQLSQFADFQAECLLEKAQVRGFHVAKRQGELVLCWHGRALVATSAWRF
modifications: labeled with [^35S]methionine
notes: also called wild type BnSCL1
B5: ΔBnSCL1^1-145, in vitro translated (other, not shown: small tags and cut ends)
chain: MDEHAMRSMDWDSIMKELEVDDDSAPYQLQPSSFNLPVFPDIDSSDVYPGPNQITGYGFNSLDSVDNGGFDYIEDLIRVVDCIESDELHLAHVVLSQLNQRLQTSAGRPLQRAAFYFKEALGSLLTGTNRNQLFSWSDIVQKIRA
modifications: labeled with [^35S]methionine
notes: C-terminal truncation lacking the VHIID motif

What was measured:
Assay in all cases: GST pulldown, [35S]Met-labelled in vitro translated protein
[1] = molecular target: T1, GST alone (negative control) (UniProt P08515 1-218 = GST)
T1 construct: Negative control in the GST pulldown assays (6 µg per reaction)
T1 sequence (P08515 whole entry): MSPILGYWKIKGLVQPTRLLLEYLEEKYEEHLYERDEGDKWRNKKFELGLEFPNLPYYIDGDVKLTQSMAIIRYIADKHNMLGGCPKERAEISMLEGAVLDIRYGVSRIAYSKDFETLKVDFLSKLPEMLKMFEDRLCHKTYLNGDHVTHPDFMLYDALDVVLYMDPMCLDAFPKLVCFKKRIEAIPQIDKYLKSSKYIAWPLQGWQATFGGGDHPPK

[2] = molecular target: T2, GST-HDA19 fusion protein (recombinant Arabidopsis thaliana HDA19 fused to glutathione S-transferase) (Arabidopsis thaliana, UniProt O22446 1-501)
T2 construct: Expressed in E. coli BL21-CodonPlus (DE3)-RP from pGEX-6P-2 (SalI/NotI) and purified under non-denaturing conditions; also called recombinant HDA19; not shown: glutathione S-transferase (GST) encoded by vector pGEX-6P-2 (Amersham Pharmacia)
T2 sequence (looked up): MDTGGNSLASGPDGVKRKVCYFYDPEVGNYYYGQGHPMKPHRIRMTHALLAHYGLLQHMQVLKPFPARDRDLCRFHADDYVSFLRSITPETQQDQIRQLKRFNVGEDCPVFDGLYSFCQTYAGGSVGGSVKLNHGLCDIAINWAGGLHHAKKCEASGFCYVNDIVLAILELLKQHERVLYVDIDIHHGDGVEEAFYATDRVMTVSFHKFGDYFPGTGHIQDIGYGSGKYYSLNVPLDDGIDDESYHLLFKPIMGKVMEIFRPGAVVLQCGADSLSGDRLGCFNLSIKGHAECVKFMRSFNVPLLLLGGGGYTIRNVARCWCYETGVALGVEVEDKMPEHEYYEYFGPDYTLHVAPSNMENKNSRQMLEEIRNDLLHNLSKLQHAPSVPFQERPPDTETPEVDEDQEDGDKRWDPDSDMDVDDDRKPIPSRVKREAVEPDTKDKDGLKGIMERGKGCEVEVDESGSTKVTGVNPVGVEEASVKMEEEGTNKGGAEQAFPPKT

[3] = molecular target: T3, GST-Gcn5 fusion protein (recombinant Arabidopsis HAT Gcn5 fused to glutathione S-transferase) (Arabidopsis, UniProt Q9AR19 1-568)
T3 construct: Expressed in E. coli from pGEX-6P-2 (SalI/NotI); also called GCN5 (HAT); histone acetyltransferase (HAT); not shown: glutathione S-transferase (GST) encoded by vector pGEX-6P-2 (Amersham Pharmacia)
T3 sequence (looked up): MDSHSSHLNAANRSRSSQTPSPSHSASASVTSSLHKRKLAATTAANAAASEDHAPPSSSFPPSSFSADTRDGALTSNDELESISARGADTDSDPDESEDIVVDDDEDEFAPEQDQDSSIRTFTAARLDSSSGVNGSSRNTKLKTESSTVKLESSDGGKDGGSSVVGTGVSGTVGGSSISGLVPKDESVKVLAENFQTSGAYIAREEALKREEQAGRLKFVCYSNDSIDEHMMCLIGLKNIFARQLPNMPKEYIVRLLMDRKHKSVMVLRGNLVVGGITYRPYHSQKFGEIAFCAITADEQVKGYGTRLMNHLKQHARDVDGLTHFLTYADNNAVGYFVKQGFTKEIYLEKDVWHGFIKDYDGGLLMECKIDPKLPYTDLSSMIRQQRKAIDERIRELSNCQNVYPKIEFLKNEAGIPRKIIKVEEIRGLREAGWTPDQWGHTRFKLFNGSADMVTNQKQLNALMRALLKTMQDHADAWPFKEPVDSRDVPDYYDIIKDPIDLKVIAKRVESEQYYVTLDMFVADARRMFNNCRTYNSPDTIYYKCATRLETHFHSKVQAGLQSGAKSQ

Binder | binding result [1] | binding result [2] | binding result [3]
B1 | no binding |  | 
B2 |  | no binding | no binding
B3 |  | no binding | no binding
B4 | no binding |  | 
B5 |  | no binding | 
